Measurements published in IntAct's records for PubMed 33947832.

B1: ORF3a protein (SARS-CoV-2), P0DTC3 (parent)
chain: MDLFMRIFTIGTVTLKQGEIKDATPSDFVRATATIPIQASLPFGWLIVGVALLAVFQSASKIITLKKRWQLALSKGVHFVCNLLLLFVTVYSHLLLVAAGLEAPFLYLYALVYFLQSINFVRIIMRLWLCWKCRSKNPLLYDANYFLCWHTNCYDYCIPYNSVTSSIVITSGDGTTSPISEHDYQIGGYTEKWESGVKDCVVLHSYFTSDYYQLYSTQLSTDTGVEHVTFFIYNKIVDEPEEHVQIHTIDGSSGVVNPVMEPIYDEPTTTTSVPL
partner: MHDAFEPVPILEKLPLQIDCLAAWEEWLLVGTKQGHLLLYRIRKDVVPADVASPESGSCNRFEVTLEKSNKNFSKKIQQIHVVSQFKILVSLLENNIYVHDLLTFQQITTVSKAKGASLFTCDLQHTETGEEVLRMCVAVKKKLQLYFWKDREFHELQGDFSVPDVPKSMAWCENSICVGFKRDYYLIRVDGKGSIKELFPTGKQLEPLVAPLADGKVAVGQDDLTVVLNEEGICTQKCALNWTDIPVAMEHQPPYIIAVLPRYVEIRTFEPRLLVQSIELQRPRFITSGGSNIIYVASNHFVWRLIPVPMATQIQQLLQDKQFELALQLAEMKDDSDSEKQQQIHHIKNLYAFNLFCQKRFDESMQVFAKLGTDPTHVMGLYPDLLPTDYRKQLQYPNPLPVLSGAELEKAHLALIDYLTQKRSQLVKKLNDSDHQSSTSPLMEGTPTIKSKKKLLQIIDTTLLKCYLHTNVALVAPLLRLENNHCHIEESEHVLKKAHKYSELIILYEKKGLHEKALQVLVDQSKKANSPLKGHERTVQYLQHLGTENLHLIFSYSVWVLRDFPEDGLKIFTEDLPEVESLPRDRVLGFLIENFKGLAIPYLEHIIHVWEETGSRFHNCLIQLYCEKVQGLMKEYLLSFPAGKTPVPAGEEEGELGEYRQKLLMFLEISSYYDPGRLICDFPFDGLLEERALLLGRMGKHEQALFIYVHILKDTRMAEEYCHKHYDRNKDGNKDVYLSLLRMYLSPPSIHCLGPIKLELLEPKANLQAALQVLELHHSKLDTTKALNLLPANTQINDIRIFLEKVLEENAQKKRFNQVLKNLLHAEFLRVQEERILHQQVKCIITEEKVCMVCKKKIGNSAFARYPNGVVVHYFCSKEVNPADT

Variants of: B1
Settings: with vps39_human VPS39, Q96JC1

| Variant | effect of a mutation on the interaction |
| --- | --- |
| Y160A | disrupting interaction strength |
